The source of these data is US20090010920A1.

The target of the experiment is FcγRIIIa on human PBMC effector cells (heterozygous V158/F158 or allotype not stated) (human) (UniProt P08637). Description: cell-based or functional assay.
Sequence of FcγRIIIa on human PBMC effector cells (heterozygous V158/F158 or allotype not stated) (human) (P08637 17-254): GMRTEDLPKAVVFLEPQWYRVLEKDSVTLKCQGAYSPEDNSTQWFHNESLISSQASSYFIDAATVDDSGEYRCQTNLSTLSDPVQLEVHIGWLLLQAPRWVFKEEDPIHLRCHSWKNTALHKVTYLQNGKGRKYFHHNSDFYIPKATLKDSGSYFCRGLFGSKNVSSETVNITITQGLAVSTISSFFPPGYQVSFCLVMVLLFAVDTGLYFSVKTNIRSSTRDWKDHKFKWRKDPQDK

For S239D/I332E alemtuzumab (antibody), the ADCC EC50, DoHH-2 target cells, human PBMCs came out at 3 ng/mL and the ADCC log(EC50), DoHH-2 target cells, human PBMCs was 0.49 log(ng/ml).

As to V264I/I332E alemtuzumab (antibody), the ADCC EC50, DoHH-2 target cells, human PBMCs was found to be 4 ng/mL and the ADCC log(EC50), DoHH-2 target cells, human PBMCs is 0.6 log(ng/ml).
